Assay results as given in patent publication US20170056521A1.

Biological target: human HLA-A2 (human)
Assay: single colony ELISA; soluble scFv supernatant on coated HLA-A2 (0.5 µg/well), anti-E-tag-HRP detection

OD450: 1.3 OD450
B1: scFv clone 3E10 (scFv)
scFv: DIQMTQSPSSLSASVGDRVTITCRASQDVFFFVAWYQQKPGKAPKLLIYGPPGLYSGVPSRFSGSGSGTDFTLTISSLQPEDFATYYCQQYFSFPITFGQGTKVEIKRGGGGSIEGRSGGGGSEVQLVESGGGLVQPGGSLRLSCAASGFTISNGGIHWVRQAPGKGLEWVASIWPSGGYTSYADSVKGRFTISADTSKNTAYLQMNSLRAEDTAVYYCARFGVNYHGIMDYWGQGTLVTVSS
